Reference: the supplement of paper PMC5998384

Tested on: HeLa Kyoto
Assay: melting temperature (median over replicates), in situ; higher = more thermally stable
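Also: HeLa Kyoto cells synchronized by double thymidine or nocodazole block, proteins quantified by TMT10plex mass spectrometry, three independent biological replicates.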

Substance | melting temperature (cell cycle stage: G1/S) | melting temperature (cell cycle stage: mitosis)
MNHLPEDMENALTGSQSSHASLRNIHSINPTQLMARIESYEGREKKGISDVRRTFCLFVTFDLLFVTLLWIIELNVNGGIENTLEKEVMQYDYYSSYFDIFLLAVFRFKVLILAYAVCRLRHWWAIALTTAVTSAFLLAKVILSKLFSQGAFGYVLPIISFILAWIETWFLDFKVLPQEAEEENRLLIVQDASERAALIPGGLSDGQFYSPPESEAGSEEAEEKQDSEKPLLEL [STARD3NL] | 55.4 °C | 
MKVLGRSFFWVLFPVLPWAVQAVEHEEVAQRVIKLHRGRGVAAMQSRQWVRDSCRKLSGLLRQKNAVLNKLKTAIGAVEKDVGLSDEEKLFQVHTFEIFQKELNESENSVFQAVYGLQRALQGDYKDVVNMKESSRQRLEALREAAIKEETEYMELLAAEKHQVEALKNMQHQNQSLSMLDEILEDVRKAADRLEEEIEEHAFDDNKSVKGVNFEAVLRVEEEEANSKQNITKREVEDDLGLSMLIDSQNNQYILTKPRDSTIPRADHHFIKDIVTIGMLSLPCGWLCTAIGLPTMFGYIICGVLLGPSGLNSIKSIVQVETLGEFGVFFTLFLVGLEFSPEKLRKVWKISLQGPCYMTLLMIAFGLLWGHLLRIKPTQSVFISTCLSLSSTPLVSRFLMGSARGDKEGDIDYSTVLLGMLVTQDVQLGLFMAVMPTLIQAGASASSSIVVEVLRILVLIGQILFSLAAVFLLCLVIKKYLIGPYYRKLHMESKGNKEILILGISAFIFLMLTVTELLDVSMELGCFLAGALVSSQGPVVTEEIATSIEPIRDFLAIVFFASIGLHVFPTFVAYELTVLVFLTLSVVVMKFLLAALVLSLILPRSSQYIKWIVSAGLAQVSEFSFVLGSRARRAGVISREVYLLILSVTTLSLLLAPVLWRAAITRCVPRPERRSSL [TMCO3] | 54.4 °C | 52.9 °C
FLNC |  | 55 °C
PLXNA2 | 54.1 °C | 54.4 °C
MGLLDRLSVLLGLKKKEVHVLCLGLDNSGKTTIINKLKPSNAQSQNILPTIGFSIEKFKSSSLSFTVFDMSGQGRYRNLWEHYYKEGQAIIFVIDSSDRLRMVVAKEELDTLLNHPDIKHRRIPILFFANKMDLRDAVTSVKVSQLLCLENIKDKPWHICASDAIKGEGLQEGVDWLQDQIQTVKT [ARL6] |  | 50.3 °C
MLAGAGRPGLPQGRHLCWLLCAFTLKLCQAEAPVQEEKLSASTSNLPCWLVEEFVVAEECSPCSNFRAKTTPECGPTGYVEKITCSSSKRNEFKSCRSALMEQRLFWKFEGAVVCVALIFACLVIIRQRQLDRKALEKVRKQIESI [JTB] |  | 53.4 °C
MLQQDSNDDTEDVSLFDAEEETTNRPRKAKIRHPVASFFHLFFRVSAIIVYLLCGLLSSSFITCMVTIILLLSCDFWAVKNVTGRLMVGLRWWNHIDEDGKSHWVFESRKESSQENKTVSEAESRIFWLGLIACPVLWVIFAFSALFSFRVKWLAVVIMGVVLQGANLYGYIRCKVRSRKHLTSMATSYFGKQFLRQNTGDDQTS [TVP23B] |  | 56 °C
MDHSHHMGMSYMDSNSTMQPSHHHPTTSASHSHGGGDSSMMMMPMTFYFGFKNVELLFSGLVINTAGEMAGAFVAVFLLAMFYEGLKIARESLLRKSQVSIRYNSMPVPGPNGTILMETHKTVGQQMLSFPHLLQTVLHIIQVVISYFLMLIFMTYNGYLCIAVAAGAGTGYFLFSWKKAVVVDITEHCH [SLC31A1] | 56.5 °C | 54.9 °C
MDEESLESALQTYRAQLQQVELALGAGLDSSEQADLRQLQGDLKELIELTEASLVSVRKSSLLAALDEERPGRQEDAEYQAFREAITEAVEAPAAARGSGSETVPKAEAGPESAAGGQEEEEGEDEEELSGTKVSAPYYSSWGTLEYHNAMVVGTEEAEDGSAGVRVLYLYPTHKSLKPCPFFLEGKCRFKENCRFSHGQVVSLDELRPFQDPDLSSLQAGSACLAKHQDGLWHAARITDVDNGYYTVKFDSLLLREAVVEGDGILPPLRTEATESDSDSDGTGDSSYARVVGSDAVDSAQSSALCPSLAVVGSDAVDSGTCSSAFAGWEVHTRGIGSRLLTKMGYEFGKGLGRHAEGRVEPIHAVVLPRGKSLDQCVETLQKQTRVGKAGTNKPPRCRGRGARPGGRPAPRNVFDFLNEKLQGQAPGALEAGAAPAGRRSKDMYHASKSAKRALSLRLFQTEEKIERTQRDIRSIQEALARNAGRHSVASAQLQEKLAGAQRQLGQLRAQEAGLQQEQRKADTHKKMTEF [ZGPAT] | 47.5 °C | 49.3 °C
MASRAGPRAAGTDGSDFQHRERVAMHYQMSVTLKYEIKKLIYVHLVIWLLLVAKMSVGHLRLLSHDQVAMPYQWEYPYLLSILPSLLGLLSFPRNNISYLVLSMISMGLFSIAPLIYGSMEMFPAAQQLYRHGKAYRFLFGFSAVSIMYLVLVLAVQVHAWQLYYSKKLLDSWFTSTQEKKHK [JAGN1] |  | 54.8 °C
MTQSVVVQVGQCGNQIGCCFWDLALREHAAVNQKGIYDEAISSFFRNVDTRVVGDGGSISKGKICSLKARAVLIDMEEGVVNEILQGPLRDVFDTKQLITDISGSGNNWAVGHKVFGSLYQDQILEKFRKSAEHCDCLQCFFIIHSMGGGTGSGLGTFLLKVLEDEFPEVYRFVTSIYPSGEDDVITSPYNSILAMKELNEHADCVLPIDNQSLFDIISKIDLMVNSGKLGTTVKPKSLVTSSSGALKKQHKKPFDAMNNIVANLLLNLTSSARFEGSLNMDLNEISMNLVPFPQLHYLVSSLTPLYTLTDVNIPPRRLDQMFSDAFSKDHQLLRADPKHSLYLACALMVRGNVQISDLRRNIERLKPSLQFVSWNQEGWKTSLCSVPPVGHSHSLLALANNTCVKPTFMELKERFMRLYKKKAHLHHYLQVEGMEESCFTEAVSSLSALIQEYDQLDATKNMPVQDLPRLSIAM [TUBE1] |  | 55.1 °C
MEMSGLSFSEMEGCRNLLGLLDNDEIMALCDTVTNRLVQPQDRQDAVHAILAYSQSAEELLRRRKVHREVIFKYLATQGIVIPPATEKHNLIQHAKDYWQKQPQLKLKETPEPVTKTEDIHLFQQQVKEDKKAEKVDFRRLGEEFCHWFFGLLNSQNPFLGPPQDEWGPQHFWHDVKLRFYYNTSEQNVMDYHGAEIVSLRLLSLVKEEFLFLSPNLDSHGLKCASSPHGLVMVGVAGTVHRGNTCLGIFEQIFGLIRCPFVENTWKIKFINLKIMGESSLAPGTLPKPSVKFEQSDLEAFYNVITVCGTNEVRHNVKQASDSGTGDQV [C3ORF38] | 50.4 °C | 50.9 °C
MATETVELHKLKLAELKQECLARGLETKGIKQDLIHRLQAYLEEHAEEEANEEDVLGDETEEEETKPIELPVKEEEPPEKTVDVAAEKKVVKITSEIPQTERMQKRAERFNVPVSLESKKAARAARFGISSVPTKGLSSDNKPMVNLDKLKERAQRFGLNVSSISRKSEDDEKLKKRKERFGIVTSSAGTGTTEDTEAKKRKRAERFGIA [SARNP] | 57.9 °C | 54.3 °C
MAHAHIQGGRRAKSRFVVCIMSGARSKLALFLCGCYVVALGAHTGEESVADHHEAEYYVAAVYEHPSILSLNPLALISRQEALELMNQNLDIYEQQVMTAAQKDVQIIVFPEDGIHGFNFTRTSIYPFLDFMPSPQVVRWNPCLEPHRFNDTEVLQRLSCMAIRGDMFLVANLGTKEPCHSSDPRCPKDGRYQFNTNVVFSNNGTLVDRYRKHNLYFEAAFDVPLKVDLITFDTPFAGRFGIFTCFDILFFDPAIRVLRDYKVKHVVYPTAWMNQLPLLAAIEIQKAFAVAFGINVLAANVHHPVLGMTGSGIHTPLESFWYHDMENPKSHLIIAQVAKNPVGLIGAENATGETDPSHSKFLKILSGDPYCEKDAQEVHCDEATKWNVNAPPTFHSEMMYDNFTLVPVWGKEGYLHVCSNGLCCYLLYERPTLSKELYALGVFDGLHTVHGTYYIQVCALVRCGGLGFDTCGQEITEATGIFEFHLWGNFSTSYIFPLFLTSGMTLEVPDQLGWENDHYFLRKSRLSSGLVTAALYGRLYERD [BTD] |  | 58 °C
MGEFKVHRVRFFNYVPSGIRCVAYNNQSNRLAVSRTDGTVEIYNLSANYFQEKFFPGHESRATEALCWAEGQRLFSAGLNGEIMEYDLQALNIKYAMDAFGGPIWSMAASPSGSQLLVGCEDGSVKLFQITPDKIQFERNFDRQKSRILSLSWHPSGTHIAAGSIDYISVFDVKSGSAVHKMIVDRQYMGVSKRKCIVWGVAFLSDGTIISVDSAGKVQFWDSATGTLVKSHLIANADVQSIAVADQEDSFVVGTAEGTVFHFQLVPVTSNSSEKQWVRTKPFQHHTHDVRTVAHSPTALISGGTDTHLVFRPLMEKVEVKNYDAALRKITFPHRCLISCSKKRQLLLFQFAHHLELWRLGSTVATGKNGDTLPLSKNADHLLHLKTKGPENIICSCISPCGSWIAYSTVSRFFLYRLNYEHDNISLKRVSKMPAFLRSALQILFSEDSTKLFVASNQGALHIVQLSGGSFKHLHAFQPQSGTVEAMCLLAVSPDGNWLAASGTSAGVHVYNVKQLKLHCTVPAYNFPVTAMAIAPNTNNLVIAHSDQQVFEYSIPDKQYTDWSRTVQKQGFHHLWLQRDTPITHISFHPKRPMHILLHDAYMFCIIDKSLPLPNDKTLLYNPFPPTNESDVIRRRTAHAFKISKIYKPLLFMDLLDERTLVAVERPLDDIIAQLPPPIKKKKFGT [UTP4] | 54.3 °C | 52.3 °C
MLRRVTVAAVCATRRKLCEAGRELAALWGIETRGRCEDSAAARPFPILAMPGRNKAKSTCSCPDLQPNGQDLGENSRVARLGADESEEEGRRGSLSNAGDPEIVKSPSDPKQYRYIKLQNGLQALLISDLSNMEGKTGNTTDDEEEEEVEEEEEDDDEDSGAEIEDDDEEGFDDEDEFDDEHDDDLDTEDNELEELEERAEARKKTTEKQSAAALCVGVGSFADPDDLPGLAHFLEHMVFMGSLKYPDENGFDAFLKKHGGSDNASTDCERTVFQFDVQRKYFKEALDRWAQFFIHPLMIRDAIDREVEAVDSEYQLARPSDANRKEMLFGSLARPGHPMGKFFWGNAETLKHEPRKNNIDTHARLREFWMRYYSSHYMTLVVQSKETLDTLEKWVTEIFSQIPNNGLPRPNFGHLTDPFDTPAFNKLYRVVPIRKIHALTITWALPPQQQHYRVKPLHYISWLVGHEGKGSILSFLRKKCWALALFGGNGETGFEQNSTYSVFSISITLTDEGYEHFYEVAYTVFQYLKMLQKLGPEKRIFEEIRKIEDNEFHYQEQTDPVEYVENMCENMQLYPLQDILTGDQLLFEYKPEVIGEALNQLVPQKANLVLLSGANEGKCDLKEKWFGTQYSIEDIENSWAELWNSNFELNPDLHLPAENKYIATDFTLKAFDCPETEYPVKIVNTPQGCLWYKKDNKFKIPKAYIRFHLISPLIQKSAANVVLFDIFVNILTHNLAEPAYEADVAQLEYKLVAGEHGLIIRVKGFNHKLPLLFQLIIDYLAEFNSTPAVFTMITEQLKKTYFNILIKPETLAKDVRLLILEYARWSMIDKYQALMDGLSLESLLSFVKEFKSQLFVEGLVQGNVTSTESMDFLKYVVDKLNFKPLEQEMPVQFQVVELPSGHHLCKVKALNKGDANSEVTVYYQSGTRSLREYTLMELLVMHMEEPCFDFLRTKQTLGYHVYPTCRNTSGILGFSVTVGTQATKYNSEVVDKKIEEFLSSFEEKIENLTEEAFNTQVTALIKLKECEDTHLGEEVDRNWNEVVTQQYLFDRLAHEIEALKSFSKSDLVNWFKAHRGPGSKMLSVHVVGYGKYELEEDGTPSSEDSNSSCEVMQLTYLPTSPLLADCIIPITDIRAFTTTLNLLPYHKIVK [NRDC] | 50.5 °C | 50.9 °C
